This test has as its target human CD3 on Jurkat cells (Homo sapiens (endogenous, Jurkat), UniProt P07766;P04234). Kind of test: flow cytometry on cells. (In general: A flow cytometer gives signals particle by particle.)

Sequence of human CD3 on Jurkat cells (P04234 whole entry, looked up, chain 1 of 2): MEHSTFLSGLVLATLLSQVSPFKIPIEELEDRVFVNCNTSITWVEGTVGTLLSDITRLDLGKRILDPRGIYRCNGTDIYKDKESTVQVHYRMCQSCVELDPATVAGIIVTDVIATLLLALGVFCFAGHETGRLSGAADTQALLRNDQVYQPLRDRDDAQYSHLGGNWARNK
Sequence of human CD3 on Jurkat cells (P07766 23-207, looked up, chain 2 of 2): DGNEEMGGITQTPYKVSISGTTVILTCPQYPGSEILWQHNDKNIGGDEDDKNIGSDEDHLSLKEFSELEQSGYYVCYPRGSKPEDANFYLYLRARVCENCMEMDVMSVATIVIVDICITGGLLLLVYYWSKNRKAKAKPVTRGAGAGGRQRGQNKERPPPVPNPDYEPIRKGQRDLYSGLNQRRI

B1: R11 scFv-Fc (homodimeric monospecific anti-ROR1 scFv-Fc) (Fc fusion)
VH: QSVKESEGDLVTPAGNLTLTCTASGSDINDYPISWVRQAPGKGLEWIGFINSGGSTWYASWVKGRFTISRTSTTVDLKMTSLTTDDTATYFCARGYSTYYGDFNIWGPGTLVTISS
VL: ELVMTQTPSSTSGAVGGTVTINCQASQSIDSNLAWFQQKPGQPPTLLIYRASNLASGVPSRFSGSRSGTEYTLTISGVQREDAATYYCLGGVGNVSYRTSFGGGTEVVVK
As for B1, the binding result is on record as “no binding (tested: 5 μg/mL)”.

The values above are taken from publication doi:10.1101/219402 (bioRxiv, 2017).
